The values below come from paper PMC9382030 (Current biology : CB, 2022).

The target of the assay is T1, phosphatidylinositol 4-phosphate 5-kinase type-1 gamma (PIP5K1C) (human, UniProt O60331 1-668).
T1 construct: PIP5K1C, human; also called PIPK1 gamma 90; source: Sf9, baculovirus, purified (amylose resin, HRV-3C cleavage, SEC); not shown: His6, N-terminal, cleaved; MBP, N-terminal, cleaved
In words: pull-down; purified GST, GST-Arf6-T27N or GST-Arf6-Q67L bound to GSH agarose as bait; purified PIP5K1C 400 nM as prey, 1 h at 4 °C; 20 mM HEPES, 250 mM NaCl, 0.5 mM TCEP; SDS-PAGE and Coomassie staining. The conditions noted are these: both partners purified.

T1 sequence (O60331 whole entry): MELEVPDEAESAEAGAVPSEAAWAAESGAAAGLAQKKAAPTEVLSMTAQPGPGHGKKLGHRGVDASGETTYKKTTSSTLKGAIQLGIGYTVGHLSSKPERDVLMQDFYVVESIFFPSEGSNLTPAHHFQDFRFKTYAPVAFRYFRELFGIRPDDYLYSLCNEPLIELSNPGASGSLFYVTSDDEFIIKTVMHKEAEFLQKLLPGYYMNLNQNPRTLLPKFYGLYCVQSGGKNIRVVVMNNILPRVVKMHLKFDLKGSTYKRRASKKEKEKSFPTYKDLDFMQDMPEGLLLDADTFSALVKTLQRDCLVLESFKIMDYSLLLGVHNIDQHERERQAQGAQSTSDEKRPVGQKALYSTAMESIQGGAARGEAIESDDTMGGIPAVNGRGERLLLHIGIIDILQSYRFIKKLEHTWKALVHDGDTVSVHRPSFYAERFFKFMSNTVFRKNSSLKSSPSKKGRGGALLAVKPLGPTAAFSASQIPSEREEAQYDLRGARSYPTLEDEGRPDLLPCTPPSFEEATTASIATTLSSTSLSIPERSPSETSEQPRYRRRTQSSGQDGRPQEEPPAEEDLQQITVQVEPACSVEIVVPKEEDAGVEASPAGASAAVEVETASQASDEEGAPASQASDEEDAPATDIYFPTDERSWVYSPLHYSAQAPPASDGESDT

B1: GST-Arf6-Q67L (natural protein, human, UniProt P62330 1-175, looked up)
chain: MGKVLSKIFGNKEMRILMLGLDAAGKTTILYKLKLGQSVTTIPTVGFNVETVTYKNVKFNVWDVGGLDKIRPLWRHYYTGTQGLIFVVDCADRDRIDEARQELHRIINDREMRDAIILIFANKQDLPDAMKPHEIQEKLGLTRIRDRNWYVQPSCATSGDGLYEGLTWLTSNYKS
notes: Arf6, human; pGEX-6P-1 Arf6-Q67L; In the phosphoinositide conversion assay an N-terminal 6xHis form (pOCC3) was used instead; also called constitutively active Arf6; source: E. coli BL21, purified (GSH agarose, SEC); not shown: GST, N-terminal, kept
As for B1, the binding result was “binds”.
